Source: article PMC10899662, “TopBP1 utilises a bipartite GINS binding mode to support genome replication” (Nature Communications, 2024)
Residue numbers refer to the chain shown, from its start. Values belong to the molecule of their own block, whether it stands above or below them.

System: GINS
Experiment: Pulldown of recombinant TopBP1-BRCT0-5 by immobilised GINS, 150 mM NaCl
Assay type: binding
Conditions: for GINS binding? (rec. proteins): summary of recombinant protein interaction tests (yes/no); for GINS interaction: 100 nM TopBP1, 20 mM HEPES pH 8.0, 150 mM NaCl, 0.01% Tween-20, 45 min, 4 °C
Description: Fig. 1 GINS and TopBP1 interact. a (i) Domain model of human (hs) TopBP1, its conservation with BRCT1/2 and 3/4 domains (grey boxes) of budding yeast Dpb11 (scDpb11). Arrows point to binding domains for interacting proteins. (ii) Overview of TopBP1 wild type (WT) and BRCT deletion (Δ) and point mutants. GINS binding capabilities are labelled in red and green. Numbers, amino acid position; capital letters indicate amino acid substitutions. Amino acid substitutions of point mutants in BRCT4 (B4mut) and 5 (B5mut) are coloured orange. b Elution profiles of size exclusion chromatography (Superdex200) of individual recombinant TopBP1-BRCT0-5 protein (grey) and GINS tetramers (green), or of both upon incubation (blue). c Recombinant GINS immobilised on Flag-beads and control beads (Flag peptide-coupled beads) were used to pull down recombinant TopBP1-0-5-WT or TopBP1-ΔBRCT4/5 (compare a(ii)). SDS gels were silver stained. kDa specifies molecular weight marker bands. The experiment was done more than three times with similar results. Source data are provided as a Source data file. TEXT PRINTED IN THE PICTURE: (a) BRCT0-5-WT: GINS binding? (rec. proteins): yes | (a) ΔBRCT4/5: GINS binding? (rec. proteins): no | (a) ΔBRCT3: GINS binding? (rec. proteins): yes | (a) ΔBRCT0/1/2: GINS binding? (rec. proteins): yes | (a) B5mut: GINS binding? (rec. proteins): yes | (a) B4mut: GINS binding? (rec. proteins): no
Fig. 2 Protein structure of the GINS-TopBP1-BRCT4/5 complex. a Structural model of the GINS-TopBP1-BRCT4/5 complex. Crystal structures of the GINS subunits (PDB:2E9X) (shades of green, yellow), and the central BRCT4/5 domain of TopBP1 (PDB:3UEN) (grey) were docked into the cryo-EM volume shown as transparent volume. b Zoom-in of the BRCT4-Psf1 interface. The residues in stick representation appear crucial for the interface. Mutations to break the interaction are coloured pink (Psf1-I97R) and purple (TopBP1-B4mut; compare Fig. 1a(ii)). c Pulldown of the indicated recombinant TopBP1-BRCT0-5-strep versions (see Fig. 1a(ii)) by Flag-beads-immobilised recombinant GINS or Flag peptide-coupled control beads. Analysis was done by immunoblotting. The experiment was done more than three times with similar results. d Pulldown of the indicated recombinant TopBP1-BRCT0-5-WT-strep using immobilised GINS-WT or GINS carrying a Ile97 to arginine mutation in Psf1.TopBP1-Gcc/B4mut-strep (Figs. 1a(ii) and 3a) was used as a non-GINS binding control. The experiment was done twice with similar results. Source data are provided as a Source data file.
Fig. 3 The conserved core of the TopBP1-GINI domain is required for a stable interaction with GINS. a Domain model and T-COFFEE alignment (one-letter aa code) of TopBP1 proteins from humans (Q92547) Xenopus laevis (Q7ZZY3), Bos taurus (A0A3Q1LWE4) and Rattus norvegicus (A0A8I6GFZ6). Coloured boxes indicate GINI region mutants in sub-regions I (blue), II (green) and III (orange), and in the GINI core helix (red) (details in Supplementary Fig. 7). Amino acid substitutions, names of GINI core region mutations and corresponding GINS binding capabilities are shown. ., : and * indicate low conservation, high conservation and identical amino acids, respectively. b/c Pulldown of recombinant TopBP1-BRCT0-5-strep-WT or the indicated GINI region mutants (a) by bead-immobilised GINS or Flag peptide-coupled control beads. Analysis was done by immunoblotting. The experiments were done more than three times with similar results. Source data are provided as a Source data file. d Fluorescence polarisation measurements including dissociation constants (kD) calculations using recombinant GINS tetramer and fluorescently labelled TopBP1-GINI-core peptides (WT or Gpp (a)). For each peptide n = 3 independent experiments and data are presented as mean values +/−SEM. TEXT PRINTED IN THE PICTURE: (a) TopBP1-Gcc: GINS binding? (rec. proteins): no | (a) TopBP1-Gcore: GINS binding? […]

- GINS binding? (rec. proteins): yes
B1: TopBP1-BRCT0-5-WT: recombinant TopBP1 amino acids 1–766, strep-tagged (protein)
chain: MSRNDKEPFFVKFLKSSDNSKCFFKALESIKEFQSEEYLQIITEEEALKIKENDRSLYICDPFSGVVFDHLKKLGCRIVGPQVVIFCMHHQRCVPRAEHPVYNMVMSDVTISCTSLEKEKREEVHKYVQMMGGRVYRDLNVSVTHLIAGEVGSKKYLVAANLKKPILLPSWIKTLWEKSQEKKITRYTDINMEDFKCPIFLGCIICVTGLCGLDRKEVQQLTVKHGGQYMGQLKMNECTHLIVQEPKGQKYECAKRWNVHCVTTQWFFDSIEKGFCQDESIYKTEPRPEAKTMPNSSTPTSQINTIDSRTLSDVSNISNINASCVSESICNSLNSKLEPTLENLENLDVSAFQAPEDLLDGCRIYLCGFSGRKLDKLRRLINSGGGVRFNQLNEDVTHVIVGDYDDELKQFWNKSAHRPHVVGAKWLLECFSKGYMLSEEPYIHANYQPVEIPVSHKPESKAALLKKKNSSFSKKDFAPSEKHEQADEDLLSQYENGSSTVVEAKTSEARPFNDSTHAEPLNDSTHISLQEENQSSVSHCVPDVSTITEEGLFSQKSFLVLGFSNENESNIANIIKENAGKIMSLLSRTVADYAVVPLLGCEVEATVGEVVTNTWLVTCIDYQTLFDPKSNPLFTPVPVMTGMTPLEDCVISFSQCAGAEKESLTFLANLLGASVQEYFVRKSNAKKGMFASTHLILKERGGSKYEAAKKWNLPAVTIAWLLETARTGKRADESHFLIENSTKEERSLETEITNGINLNSDTAEHP
modifications: left off: Strep, C-terminal, kept
notes: recombinant TopBP1 amino acids 1–766, strep-tagged

- GINS binding? (rec. proteins): no
B2: TopBP1-B4mut: Val590, Thr606 and Val610 mutated to glutamate, arginine and glutamate (protein)
chain: B1 chain with V590E, T606R, V610E
modifications: left off: Strep, C-terminal, kept
- GINS interaction: strongly compromised in its ability to bind GINS

- GINS binding? (rec. proteins): no
B3: TopBP1-Gpp: TopBP1-BRCT0-5, central leucine-leucine motif mutated to two consecutive prolines (protein)
chain: B1 chain with L490P, L491P
modifications: left off: Strep, C-terminal, kept
notes: TopBP1-BRCT0-5, central leucine-leucine motif mutated to two consecutive prolines
- GINS interaction: strongly compromised
